Test results published in paper PMC3423971 (Structure (London, England : 1993), 2012).
Positions count from the first letter of the chain named. In names and notes the source's numbering stands.

B1: wild-type SAGA deubiquitinating module (DUBm): Ubp8, Sgf11, Sus1, Sgf73(1-96) (complex, yeast)
chain 1: MSICPHIQQVFQNEKSKDGVLKTCNAARYILNHSVPKEKFLNTMKCGTCHEINSGATFMCLQCGFCGCWNHSHFLSHSKQIGHIFGINSNNGLLFCFKCEDYIGNIDLINDAILAKYWDDVCTKTMVPSMERRDGLSGLINMGSTCFMSSILQCLIHNPYFIRHSMSQIHSNNCKVRSPDKCFSCALDKIVHELYGALNTKQASSSSTSTNRQTGFIYLLTCAWKINQNLAGYSQQDAHEFWQFIINQIHQSYVLDLPNAKEVSRANNKQCECIVHTVFEGSLESSIVCPGCQNNSKTTIDPFLDLSLDIKDKKKLYECLDSFHKKEQLKDFNYHCGECNSTQDAIKQLGIHKLPSVLVLQLKRFEHLLNGSNRKLDDFIEFPTYLNMKNYCSTKEKDKHSENGKVPDIIYELIGIVSHKGTVNEGHYIAFCKISGGQWFKFNDSMVSSISQEEVLKEQAYLLFYTIRQVN
chain 2: MTEETITIDSISNGILNNLLTTLIQDIVARETTQQQLLKTRYPDLRSYYFDPNGSLDINGLQKQQESSQYIHCENCGRDVSANRLAAHLQRCLSRGARR
chain 3: MTMDTAQLKSQIQQYLVESGNYELISNELKARLLQEGWVDKVKDLTKSEMNINESTNFTQILSTVEPKALEMVSDSTRETVLKQIREFLEEIVDTQ
chain 4: MRSGDAEIKGIKPKVIEEYSLSQGSGPSNDSWKSLMSSAKDTPLQYDHMNRESLKKYFNPNAQLIEDPLDKPIQYRVCEKCGKPLALTAIVDHLEN
B2: DUBm-ΔSgf11-ZnF-Ubp8^S144N/S149N: Ubp8 S144N S149N, Sgf11(1-72), Sus1, Sgf73(1-96) (complex, yeast)
chain 1: B1 chain 1 with S144N, S149N
chain 2: MTEETITIDSISNGILNNLLTTLIQDIVARETTQQQLLKTRYPDLRSYYFDPNGSLDINGLQKQQESSQYIH
chain 3: B1 chain 3
chain 4: B1 chain 4
B3: DUBm-ΔSgf11-ZnF-Ubp8^S144N: Ubp8 S144N, Sgf11(1-72), Sus1, Sgf73(1-96) (complex, yeast)
chain 1: B1 chain 1 with S144N
chain 2: B2 chain 2
chain 3: B1 chain 3
chain 4: B1 chain 4
B4: Ubp8 S144N (enzyme, yeast)
chain: B1 chain 1 with S144N
B5: Ubp8 (wild type) (enzyme, yeast)
chain: B1 chain 1
B6: DUBm-ΔSgf11-ZnF-Ubp8^S149N: Ubp8 S149N, Sgf11(1-72), Sus1, Sgf73(1-96) (complex, yeast)
chain 1: B1 chain 1 with S149N
chain 2: B2 chain 2
chain 3: B1 chain 3
chain 4: B1 chain 4
B7: DUBm-ΔSgf11-ZnF-Ubp8^WT: Ubp8, Sgf11(1-72), Sus1, Sgf73(1-96) (complex, yeast)
chain 1: B1 chain 1
chain 2: B2 chain 2
chain 3: B1 chain 3
chain 4: B1 chain 4

Legend:
[1] = target: ubiquitin-AMC (UniProt P0CG48 1-76, AMC (ubiquitin-AMC)); assay: cell-based or functional assay
[2] = target: the molecule itself; assay: AUC
[3] = target: the molecule itself; assay: AUC; remark: listed apart in the source
[4] = target: the molecule itself; assay: crystal structure

Binder	KM of Ub-AMC cleavage (steady-state kinetics, 30°C) [1]	stoichiometry N [2]	Kd [3]	binding result [4]
B1	24 µM	–	–	–
B2	13 µM	–	–	–
B3	17 µM	2	28 µM	–
B4	–	–	–	binds
B5	–	–	–	binds
B6	11 µM	–	–	–
B7	19 µM	2	~17 µM	–
